Two molecules from patent US10919943B2, “Mutant proteins enabling agrochemical control of plant gene expression” (The Regents of the University of California, priority 2016, dated 2021) can be followed below.

The target of test [1] is T1, wild type HAB1 (Arabidopsis thaliana, UniProt O49686+Q9CAJ0, A160V/F108A/F159V/K59R/M158I/S122G/T162D/V81I/Y58H).
T1 construct: made in house; host or cells: E. coli BL21 [DE3]pLysS
As to the kind of experiment: In vitro pull down assay with recombinant 6×-His receptor and GST-PP2C. In kind it is binding. As to conditions: 10 μM mandipropamid; FIG. 8. From the text:
(§1) To characterize the orthogonal orthogonal module biochemically, we produced recombinant forms of 6×-His-PYR1*^-MANDI, 6×-His-PYR1, GST-HAB1*, and GST-HAB1 in E. coli, as described above, and tested wild type and orthogonal receptors for their ability to inhibit GST-HAB1 activity in vitro, as well as their physical interactions with one another using pull-down assays. To characterize PYR1*^-MANDI and HAB1* in vitro, we cloned PYR1*^-MANDI into pET28 to generate a 6×-His tagged receptor and cloned HAB1* into pGEX-4T-1 to create a GST-fusion protein. Recombinant 6×-His-PYR1*^-MANDI and GST-HAB1* were prepared, as described above in example 1C, and used in experiments with previously prepared 6×-His-PYR1 and GST-HAB1. To conduct pull down assays, the specified recombinant receptor and PP2C (20 and 140 μg respectively), were combined in 500 μl PP2C assay buffer (100 mM Tris-HCl (pH 7.9), 100 mM NaCl, 1 mM MnCl2, 1% 13-ME and 0.3% BSA) containing either 10 μM ABA, 10 μM mandipropamid or 1% DMSO carrier solvent as a negative control. The final protein concentrations in the reactions are 1.6 μM receptor and 3.4 μM PP2C. The reactions were incubated for 90 minutes at room temperature (RT) and 20 μl of PrepEase (USB) His-tagged protein purification resin (20 mg) was added. The resin and reaction mixtures were incubated for 30 minutes at RT with gentle shaking at 5 minute intervals. The resin was washed five times and 100 μl of SDS-PAGE buffer was added and boiled for 5 minutes. After centrifugation 20 μl of supernatant was analyzed by SDS-PAGE.

Test [2] deals with HAB1. Description: In vitro PP2C assay, ligand-promoted inhibition of GST-HAB1 by receptor. In kind it is biochemical, Arabidopsis. As to conditions: FIG. 9. From the text:
In the presence of ABA, wild type PYR1 binds to HAB1 and docks into its active site, which inhibits its enzymatic activity by blocking access of substrates. To characterize the orthogonal PYR1^! and HAB1^! interaction biochemically, we produced recombinant forms of each protein in E. coli, along with the wild type form, and tested the wild type and orthogonal mutant for their ability to inhibit HAB1 and HAB1^! activities in vitro. We cloned PYR1^! into pET28 to generate 6×-His tagged receptor and cloned HAB1^! into pGEX-4T-1 to create a GST-fusion protein. The previously constructed (S.-Y. Park et al., 2009) wild type 6×-His-PYR1 and GST-HAB1 constructs were used for producing recombinant wild type proteins. The 6×-His-tagged receptors and GST-tagged PP2Cs were expressed and purified as previously described. Briefly, the proteins were expressed in BL21 [DE3]pLysS E. coli host cells at 18° C. overnight. Fusion proteins were purified from sonicated lysates using Ni-NTA agarose (Qiagen, USA) or Pierce™ Glutathione Agarose (Thermo Scientific) according to the manufacturer's instructions. PP2C assays were conducted in 96-well polystyrene flat-bottom microtitre plates (Greiner). […] The plates were read using a Victor 2 plate reader (PerkinElmer) (355 nm excitation, 460 nm emission) and assays run in triplicate. The PP2C activity values reported are expressed as percent control values, which were calculated by including the carrier solvent (1% DMSO) and the specific receptor assayed, but no ligand. […]
According to our current understanding, in order for ABA signaling to be initiated in vivo, PP2C activity must be inhibited to enable accumulation of active SnRK2 kinases. […] 4-methylumbeliferyl phosphate was added (1 mM final concentration) was added to the reactions after 30 minutes equilibration and plates were read by fluorimetry. The PP2C activity values reported are expressed as percent control values, which was calculated by including the carrier solvent (1% DMSO) and the specific receptor assayed, but no ligand.

Test [3] deals with T2, wild type PYR1 (Arabidopsis thaliana, UniProt O49686).
T2 construct: made in house; host or cells: E. coli BL21 [DE3]pLysS
T2 sequence (O49686 1-191): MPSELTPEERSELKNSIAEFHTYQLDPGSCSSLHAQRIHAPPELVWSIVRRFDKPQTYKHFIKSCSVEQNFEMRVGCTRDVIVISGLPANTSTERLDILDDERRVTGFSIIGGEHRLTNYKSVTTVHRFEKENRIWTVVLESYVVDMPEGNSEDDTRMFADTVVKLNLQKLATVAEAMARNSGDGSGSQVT
As to the kind of experiment: In vitro pull down assay with recombinant 6×-His receptor and GST-PP2C. The format is binding. As to conditions: FIG. 8.
Description: as §1

Changes are numbered by the printed parent chain.

T1 sequence (O49686 whole entry Y58H/K59R/V81I/F108A/S122G/M158I/F159V/A160V/T162D): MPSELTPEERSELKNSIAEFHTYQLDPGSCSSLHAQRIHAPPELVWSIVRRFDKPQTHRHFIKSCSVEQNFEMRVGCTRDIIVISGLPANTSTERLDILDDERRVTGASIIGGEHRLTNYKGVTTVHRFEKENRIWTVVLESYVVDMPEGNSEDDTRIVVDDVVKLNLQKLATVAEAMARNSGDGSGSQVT
T1 sequence (Q9CAJ0 23-511): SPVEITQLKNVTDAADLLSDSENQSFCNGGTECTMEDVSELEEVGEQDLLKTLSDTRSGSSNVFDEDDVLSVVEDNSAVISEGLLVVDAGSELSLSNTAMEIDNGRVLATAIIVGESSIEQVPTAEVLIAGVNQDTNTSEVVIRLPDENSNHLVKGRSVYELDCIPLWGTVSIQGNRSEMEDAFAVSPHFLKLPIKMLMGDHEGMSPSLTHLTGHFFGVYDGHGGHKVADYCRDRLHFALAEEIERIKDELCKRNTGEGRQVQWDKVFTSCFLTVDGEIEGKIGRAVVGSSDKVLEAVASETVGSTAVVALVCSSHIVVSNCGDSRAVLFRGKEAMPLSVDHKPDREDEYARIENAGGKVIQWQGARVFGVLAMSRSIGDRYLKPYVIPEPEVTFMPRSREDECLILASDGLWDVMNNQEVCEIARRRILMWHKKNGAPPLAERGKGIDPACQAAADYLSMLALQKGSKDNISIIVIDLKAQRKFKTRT

B1: PYR1*^-MANDI: PYR1 mutant with 9 mutations, most sensitive to mandipropamid (protein, listed as Arabidopsis thaliana)
chain: T2 sequence (O49686 1-191) with Y58H, K59R, V81I, F108A, S122G, M158I, F159V, A160V, T162D
For the molecule B1, the “binding to wild type HAB1” value in test [1] is reported as “can bind”. Further, the “inhibition of HAB1 enzymatic activity” value in test [2] (in response to ABA) was “does not inhibit”. Further, the “inhibition of wild type HAB1 enzymatic activity” value in test [2] (in response to mandipropamid, 100 nM receptor, 50 nM GST-HAB1) was “does not substantially inhibit”.

B2: HAB1*: catalytically inactive orthogonal pentuple HAB1 mutant (protein, listed as Arabidopsis thaliana)
chain: MTPAVAMTLSLAANTMCESSPVEITQLKNVTDAADLLSDSENQSFCNGGTECTMEDVSELEEVGEQDLLKTLSDTRSGSSNVFDEDDVLSVVEDNSAVISEGLLVVDAGSELSLSNTAMEIDNGRVLATAIIVGESSIEQVPTAEVLIAGVNQDTNTSEVVIRLPDENSNHLVKGRSVYELDCIPLWGTVSIQGNASEMEAAFAVSPHFLKLPIKMLMGDHEGMSPSLTHLTGHFFGVYDGHGGHKVADYCRDRLHFALAEEIERIKDELCKRNTGEGRQVQWDKVFTSCFLTVDGEIEGKIGRAVVGSSDKVLEAVADETVGSTAVVALVCSSHIVVSNCGDSRAVLFRGKEAMPLSVDHKPDREDEYARIENAGGKVIQWQGARVFGRLAMSRSIGDRYLKPYVIPEPEVTFMPRSREDECLILASDGLWDVMNNQEVCEIARRRILMWHKKNGAPPLAERGKGIDPACQAAADYLSMLALQKGSKDNISIIVIDLKAQAKFKTRT
As to B2, the “binding to wild type PYR1” value in test [3] (10 μM ABA) and in test [3] (10 μM mandipropamid) was “does not bind” each time.
